From patent publication US20240132578A1

Legend:
Test in all cases: cell-based or functional assay
[1] = target: Envelope protein of control pseudovirus MuLV (MuLV)
[2] = target: HIV-1 Env of pseudovirus ZM214 (HIV-1)
[3] = target: HIV-1 Env of pseudovirus PVO.4 (HIV-1)
[4] = target: HIV-1 JR-FL Env E168K, on pseudovirus (HIV-1 isolate JR-FL (clade B))
[5] = target: HIV-1 Env of pseudovirus AC10 (HIV-1)
[6] = target: HIV-1 Env of pseudovirus REJ04541 (HIV-1)
[7] = target: HIV-1 Env of pseudovirus CAAN (HIV-1)
[8] = target: HIV-1 Env of pseudovirus CAP45 (HIV-1)
[9] = target: HIV-1 Env of pseudovirus ZM233 (HIV-1)
[10] = target: HIV-1 Env of pseudovirus DU156 (HIV-1)
[11] = target: HIV-1 ADA envelope glycoprotein (Env), on pseudovirus (HIV-1 isolate ADA)
[12] = target: HIV-1 Env of pseudovirus ZM249 (HIV-1)
[13] = target: HIV-1 92RW020 envelope glycoprotein (Env), on pseudovirus (HIV-1 isolate 92RW020 (clade A))
[14] = target: HIV-1 Env of pseudovirus Du172 (HIV-1)
[15] = target: HIV-1 Env of pseudovirus DU422 (HIV-1)
[16] = target: HIV-1 Env of pseudovirus THRO.18 (HIV-1)
[17] = target: HIV-1 Env of pseudovirus TR0.11 (HIV-1)

Binder | IC50, pseudovirus neutralization (TZM-bl assay), control virus [1] | IC50, pseudovirus neutralization (TZM-bl assay) [2] | IC50, pseudovirus neutralization (TZM-bl assay) [3] | IC50 (ug/ml), pseudovirus neutralization, TZM-bl assay [4] | IC50, pseudovirus neutralization (TZM-bl assay) [5] | IC50, pseudovirus neutralization (TZM-bl assay) [6] | IC50, pseudovirus neutralization (TZM-bl assay) [7] | IC50, pseudovirus neutralization (TZM-bl assay) [8] | IC50, pseudovirus neutralization (TZM-bl assay) [9] | IC50, pseudovirus neutralization (TZM-bl assay) [10] | IC50 (ug/ml), pseudovirus neutralization, TZM-bl assay [11] | IC50, pseudovirus neutralization (TZM-bl assay) [12] | IC50 (ug/ml), pseudovirus neutralization, TZM-bl assay [13] | IC50, pseudovirus neutralization (TZM-bl assay) [14] | IC50, pseudovirus neutralization (TZM-bl assay) [15] | IC50, pseudovirus neutralization (TZM-bl assay) [16] | IC50, pseudovirus neutralization (TZM-bl assay) [17]
1503_H05 (PG16) (TCN-119) (antibody, V domains shown) VH: QEKLVESGGGVVQPGGSLRLSCLASGFTFHKYGMHWVRQAPGKGLEWVALISDDGMRKYHSDSMWGRVTISRDNSKNTLYLQFSSLKVEDTAMFFCAREAGGPIWHDDVKYYDFNDGYYNYHYMDVWGKGTIVTVSS VL: QSALTQPASVSGSPGQTITISCNGTRSDVGGFDSVSWYQQSPGKAPKVMVFDVSHRPSGISNRFSGSKSGNTASLTISGLHIEDEGDYFCSSLTDRSHRIFGGGTKVTVLG | > 25 µg/mL | > 25 µg/mL | 11 µg/mL | 0.002 µg/mL | < 0.01 µg/mL | 0.22 µg/mL | 13.5 µg/mL | < 0.01 µg/mL | < 0.01 µg/mL | < 0.01 µg/mL | 0.003 µg/mL | < 0.01 µg/mL | 0.02 µg/mL | < 0.01 µg/mL | 0.71 µg/mL | 4.12 µg/mL | 4.3 µg/mL
1456_A12 (PG16) (TCN-117) (antibody, V domains shown) VH: HEQLVEAGGGVVQPGGSLRLSCLASGFTFHKYGMHWVRQAPGKGLEWVALISDDGMRKYHSDSMWGRVTISRDNSKNTLYLQFSSLRVEDTAMFFCAREAGGPIWHDDVKYYDFNDGYYNYHYMDVWGKGTKVTVSS VL: QSALTQPASVSGSPGQTITISCNGTSRDVGGFDSVSWYQQSPGKAPKVMVFDVSHRPSGMSNRFSGSKSGNTASLTISGLHIEDEGDYFCSSLTDRSHRIFGGGTKLTVLG | > 25 µg/mL | > 25 µg/mL | 10.4 µg/mL | 0.003 µg/mL | < 0.01 µg/mL | < 0.01 µg/mL | 10.6 µg/mL | < 0.01 µg/mL | < 0.01 µg/mL | < 0.01 µg/mL | 0.005 µg/mL | < 0.01 µg/mL | 0.05 µg/mL | < 0.01 µg/mL | 0.36 µg/mL | 2.08 µg/mL | 3.05 µg/mL
1469_M23 (PG16) (TCN-118) (antibody, V domains shown) VH: QEKLVESGGGVVQPGGSLRLSCLASGFTFHKYGMHWVRQAPGKGLEWVALISDDGMRKYHSDSMWGRVTISRDNSKNTLYLQFSSLKVEDTAMFFCAREAGGPIWHDDVKYYDFNDGYYNYHYMDVWGKGTTVTVSS VL: QSALTQPASVSGSPGQTITISCNGTRSDVGGFDSVSWYQQSPGRAPKVMVFDVSHRPSGISNRFSGSKSGNTASLTISGLHIEDEGDYFCSSLTDRSHRIFGGGTKLTVLG | > 25 µg/mL | > 25 µg/mL | 21.2 µg/mL | 0.005 µg/mL | < 0.01 µg/mL | 0.39 µg/mL | 17.7 µg/mL | < 0.01 µg/mL | < 0.01 µg/mL | < 0.01 µg/mL | 0.005 µg/mL | < 0.01 µg/mL | 0.05 µg/mL | < 0.01 µg/mL | 0.97 µg/mL | 7.01 µg/mL | 7.52 µg/mL
1489_I13 (PG16) (TCN-120) (antibody, V domains shown) VH: QEQLLESGGGVVQPGGSLRLSCLASGFTFHKYGMHWVRQAPGKGLEWVALISDDGMRKYHSNSMWGRVTISRDNSKNTLYLQFSSLKVEDTAMFFCAREAGGPIWHDDVKYYDFNDGYYNYHYMDVWGKGTTVTVSS VL: QSALTQPASVSGSPGQTITISCNGTSSDVGGFDSVSWYQQSPGKAPKVMVFDVSHRPSGISNRFSGSKSGNTASLTISGLHIEDEGDYFCSSLTDRSHRIFGGGTKVTVLG | > 25 µg/mL | > 25 µg/mL | 20.6 µg/mL | 0.005 µg/mL | < 0.01 µg/mL | 0.34 µg/mL | 24.9 µg/mL | < 0.01 µg/mL | < 0.01 µg/mL | < 0.01 µg/mL | 0.008 µg/mL | < 0.01 µg/mL | 0.03 µg/mL | < 0.01 µg/mL | 1.87 µg/mL | 7.41 µg/mL | 10.9 µg/mL
